B1: [His6Flag3-SEQ ID NO:15] (VHH)
VHH: EVQLVESGGGLVQAGGSLRLSCAASGLTFSSYAMGWFRQAPGKERERVVSISRGGGYTYYADSVKGRFTISRDNAENTVYLQMNSLKPEDTAVYYCAAARYWATGSEYEFDYWGQGTLVTVSS
notes: not shown: N-terminal His6-Flag3 tag
B2: serum albumin binder of SEQ ID NO:15 (T0235005D04, wild type) (VHH)
VHH: B1 VHH
notes: no tag is stated for these experiments

Experiments:
[1] = target: T1, human serum albumin (Sigma-Aldrich A3782) (human, UniProt P02768 25-609); assay: competition ELISA on coated human serum albumin; tracer 1.5 nM [SEQ ID NO:1-cMycHis6] detected with anti-cMyc
T1 construct: Bought protein; also called HSA; human SA

[2] = target: T1, human serum albumin (Sigma-Aldrich …); assay: SPR (ProteOn XPR36), albumin immobilised, pH 7.4
[3] = target: T2, cynomolgus monkey serum albumin (generated in-house) (cynomolgus monkey, UniProt A2V9Z4 25-608, limits assumed); assay: SPR (ProteOn XPR36), albumin immobilised, pH 7.4
T2 construct: also called cyno SA

[4] = target: T3, rat serum albumin (Sigma-Aldrich A4538) (rat, UniProt P02770 25-608); assay: SPR (ProteOn XPR36), albumin immobilised, pH 7.4
T3 construct: Bought protein; also called rat SA

[5] = target: T4, mouse serum albumin (Albumin Bioscience 2601) (mouse, UniProt P07724 25-608); assay: SPR (ProteOn XPR36), albumin immobilised, pH 7.4
T4 construct: Bought protein; also called mouse SA

[6] = target: T5, guinea pig serum albumin (Gentaur GPSA62) (guinea pig); assay: SPR (ProteOn XPR36), albumin immobilised, pH 7.4
T5 construct: also called guinea pig SA

[7] = target: T1, human serum albumin (Sigma-Aldrich …); assay: SPR (ProteOn), HSA immobilised, 500 nM injected, dissociation at pH 5.0
[8] = target: T1, human serum albumin (Sigma-Aldrich …); assay: SPR (ProteOn), HSA immobilised, 500 nM injected, dissociation at pH 6.0
[9] = target: T1, human serum albumin (Sigma-Aldrich …); assay: SPR (ProteOn), HSA immobilised, 500 nM injected, dissociation at pH 7.4

Binder	IC50 (read off the curve) [1] [nM]	Kd [2] [nM]	koff [2] [s⁻¹]	kon [2] [M⁻¹ s⁻¹]	Kd [3] [nM]	koff [3] [s⁻¹]	kon [3] [M⁻¹ s⁻¹]	Kd [4] [nM]	koff [4] [s⁻¹]	kon [4] [M⁻¹ s⁻¹]	Kd [5] [nM]	koff [5] [s⁻¹]	kon [5] [M⁻¹ s⁻¹]	Kd [6] [nM]	koff [6] [s⁻¹]	kon [6] [M⁻¹ s⁻¹]	koff [7] [s⁻¹]	koff [8] [s⁻¹]	koff [9] [s⁻¹]
B1	~0.8																		
B2		0.19	0.00015	810000	0.12	9.4e-05	770000	21	0.022	1e+06	1.9	0.0024	1.2e+06	1.5	0.0021	1.4e+06	5.8e-05	6.9e-05	0.00011

Reference: US20230050615A1 (Ablynx, published 2023)
